Assay results taken from paper PMC3818285, “Increased Biomass, Seed Yield and Stress Tolerance Is Conferred in Arabidopsis by a Novel Enzyme from the Resurrection Grass Sporobolus stapfianus That Glycosylates the Strigolactone Analogue GR24” (PLoS ONE, 2013).

Substrate: [H][C@]12Cc3ccccc3[C@@]1([H])OC(=O)/C2=C/O[C@@H]1C=C(C)C(=O)O1
Assay: coupled enzyme assay (NADH oxidation), Lineweaver-Burk plot
Type: biochemical, Sporobolus stapfianus
Settings: pH 7.4, leaf protein extract 25 µg, background without substrate subtracted, vector-only control extract

B1: SDG8i (Sporobolus stapfianus) (protein)
chain: MTKTVVLYPIRGAGHLTPMIQLARLFLQHGGFNVTVAIGSSPEDSDFSALVARAAAANPSVTFHILPQPSSTPDGSNTDVTPKHKHPVVHLFDTLGAMNAPLRDFLRSLPAVDALVVDMFCYDALDVAAELELPAYFLYASGAGDLAVFLNLPSARAGMTTSFAELGDTLLTLPGAPPFKASDLPADAINDNEVARCTRRMFERMPESHGILVNSFEALETRAVRALRDGLCVPDRATPPIYCIGPLVSGGGGEKEHECLRWLDAQPDNSVVFLCFGSMGTFSKKQLHDIAVGLEKSEQRFLWVVRSPRSDDHKFGEPRPELDLDAFLRDGFLERTKERGLVLKSWAPQVDVLHHRATGAFVTHCGWNSTLEGIMAGIPLLCWPLYAEQRMNKVFIVDELKLGVEMRGYNQEVVKAEEVESKVRWVLESEAGQAIRERVLAMKDKAAEALKEGGPSHVEFVKFLKDLEAVGRP
notes: unpurified leaf protein extract; no tag stated
- Km: 349 µM
